Reference: the supplement of paper PMC9112550, “Optimization of the antimicrobial peptide Bac7 by deep mutational scanning” (BMC Biology, 2022)

System: Escherichia coli TOP10
Test: shrunken log2 fold change of peptide-encoding DNA abundance (4.5 h post-induction vs induction); higher = less antimicrobial activity (less host growth inhibition)
Conditions: time post-induction: 4.5 h; library: site-saturation at positions 5, 18, 19, 20
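Note: peptides expressed intracellularly from a pBAD plasmid library in pooled LB shake-flask culture, induced with 0.3% L-arabinose, DNA abundance read by NGS, three biological replicates, DESeq2 with apeglm shrinkage.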

Sequence | shrunken log2 fold change
RRIRMRPPRLPRPRPRPEEWPRP | 0.00599
RRIRMRPPRLPRPRPRPEFFPRP | 0.277
RRIRMRPPRLPRPRPRPEGIPRP | 2.03
RRIRMRPPRLPRPRPRPEHQPRP | 0.0185
RRIRMRPPRLPRPRPRPEIYPRP | 0.106
RRIRMRPPRLPRPRPRPELHPRP | 0.397
RRIRMRPPRLPRPRPRPENWPRP | 0.795
RRIRMRPPRLPRPRPRPERGPRP | 1.39
RRIRMRPPRLPRPRPRPERVPRP | 2.69
RRIRMRPPRLPRPRPRPETDPRP | 1.77
RRIRMRPPRLPRPRPRPETTPRP | 3.65
RRIRMRPPRLPRPRPRPEVKPRP | 2.97
RRIRMRPPRLPRPRPRPEWLPRP | 0.056
RRIRMRPPRLPRPRPRPFAIPRP | -0.0351
RRIRMRPPRLPRPRPRPFATPRP | 0.609
RRIRMRPPRLPRPRPRPFCKPRP | -0.224
RRIRMRPPRLPRPRPRPFCLPRP | -0.15
RRIRMRPPRLPRPRPRPFCWPRP | 0.421
RRIRMRPPRLPRPRPRPFFKPRP | -0.116
RRIRMRPPRLPRPRPRPFFLPRP | -0.199
RRIRMRPPRLPRPRPRPFFSPRP | 0.195
RRIRMRPPRLPRPRPRPFGFPRP | -0.0868
RRIRMRPPRLPRPRPRPFGIPRP | 0.0278
RRIRMRPPRLPRPRPRPFGSPRP | 0.00388
RRIRMRPPRLPRPRPRPFHFPRP | -0.313

Sequence | shrunken log2 fold change
RRIRMRPPRLPRPRPRPFKCPRP | -0.0731
RRIRMRPPRLPRPRPRPFMKPRP | -0.0288
RRIRMRPPRLPRPRPRPFNNPRP | -0.296
RRIRMRPPRLPRPRPRPFPGPRP | -0.0808
RRIRMRPPRLPRPRPRPFPHPRP | -0.0309
RRIRMRPPRLPRPRPRPFQQPRP | -0.00146
RRIRMRPPRLPRPRPRPFQVPRP | 0.0921
RRIRMRPPRLPRPRPRPFQYPRP | 0.00421
RRIRMRPPRLPRPRPRPFTLPRP | -0.0107
RRIRMRPPRLPRPRPRPFWGPRP | -0.149
RRIRMRPPRLPRPRPRPFWKPRP | 0.072
RRIRMRPPRLPRPRPRPFWRPRP | 0.463
RRIRMRPPRLPRPRPRPFWTPRP | 0.0652
RRIRMRPPRLPRPRPRPFWYPRP | -0.0609
RRIRMRPPRLPRPRPRPFYAPRP | -0.47
RRIRMRPPRLPRPRPRPGAGPRP | 1.22
RRIRMRPPRLPRPRPRPGAKPRP | 1.48
RRIRMRPPRLPRPRPRPGCHPRP | 0.0532
RRIRMRPPRLPRPRPRPGDEPRP | 0.818
RRIRMRPPRLPRPRPRPGDMPRP | 0.484
RRIRMRPPRLPRPRPRPGERPRP | 0.772
RRIRMRPPRLPRPRPRPGGDPRP | 1.58
RRIRMRPPRLPRPRPRPGGFPRP | 1.06
RRIRMRPPRLPRPRPRPGGGPRP | 1.67
RRIRMRPPRLPRPRPRPGHAPRP | 2.85

Sequence | shrunken log2 fold change
RRIRMRPPRLPRPRPRPGIVPRP | 0.332
RRIRMRPPRLPRPRPRPGLTPRP | 1.02
RRIRMRPPRLPRPRPRPGNEPRP | 1.05
RRIRMRPPRLPRPRPRPGPNPRP | 0.641
RRIRMRPPRLPRPRPRPGSHPRP | 0.0978
RRIRMRPPRLPRPRPRPGTFPRP | -0.0326
RRIRMRPPRLPRPRPRPGVNPRP | -0.0818
RRIRMRPPRLPRPRPRPGVRPRP | 1.42
RRIRMRPPRLPRPRPRPGWCPRP | 0.181
RRIRMRPPRLPRPRPRPGWVPRP | 0.0878
RRIRMRPPRLPRPRPRPHAQPRP | -0.015
RRIRMRPPRLPRPRPRPHDWPRP | 1.45
RRIRMRPPRLPRPRPRPHEEPRP | 0.053
RRIRMRPPRLPRPRPRPHEGPRP | 0.443
RRIRMRPPRLPRPRPRPHERPRP | 1.04
RRIRMRPPRLPRPRPRPHFDPRP | -0.0378
RRIRMRPPRLPRPRPRPHHAPRP | 0.0324
RRIRMRPPRLPRPRPRPHHRPRP | -0.0556
RRIRMRPPRLPRPRPRPHIAPRP | 0.13
RRIRMRPPRLPRPRPRPHILPRP | 0.113
RRIRMRPPRLPRPRPRPHIWPRP | -0.0244
RRIRMRPPRLPRPRPRPHKTPRP | 0.0147
RRIRMRPPRLPRPRPRPHLEPRP | 0.0983
RRIRMRPPRLPRPRPRPHLLPRP | 0.137
RRIRMRPPRLPRPRPRPHQHPRP | -0.0409

Sequence | shrunken log2 fold change
RRIRMRPPRLPRPRPRPHQTPRP | 0.184
RRIRMRPPRLPRPRPRPHQYPRP | -0.41
RRIRMRPPRLPRPRPRPHSGPRP | 0.00795
RRIRMRPPRLPRPRPRPHSNPRP | 0.0878
RRIRMRPPRLPRPRPRPHVFPRP | 0.0558
RRIRMRPPRLPRPRPRPHVSPRP | -0.0138
RRIRMRPPRLPRPRPRPHYSPRP | -0.624
RRIRMRPPRLPRPRPRPICFPRP | 0.149
RRIRMRPPRLPRPRPRPIEPPRP | 0.0361
RRIRMRPPRLPRPRPRPIFEPRP | 0.166
RRIRMRPPRLPRPRPRPIHWPRP | -0.257
RRIRMRPPRLPRPRPRPIIEPRP | -0.0631
RRIRMRPPRLPRPRPRPIIFPRP | -0.0918
RRIRMRPPRLPRPRPRPIKVPRP | -0.149
RRIRMRPPRLPRPRPRPILEPRP | 0.142
RRIRMRPPRLPRPRPRPILHPRP | -0.378
RRIRMRPPRLPRPRPRPIMTPRP | -0.104
RRIRMRPPRLPRPRPRPIMYPRP | -0.171
RRIRMRPPRLPRPRPRPIQTPRP | -0.00151
RRIRMRPPRLPRPRPRPISTPRP | 0.166
RRIRMRPPRLPRPRPRPIVFPRP | 0.038
RRIRMRPPRLPRPRPRPIVKPRP | 0.0312
RRIRMRPPRLPRPRPRPIWAPRP | 0.114
RRIRMRPPRLPRPRPRPIWDPRP | 0.0663
RRIRMRPPRLPRPRPRPIYFPRP | -0.141

Sequence | shrunken log2 fold change
RRIRMRPPRLPRPRPRPIYQPRP | -0.236
RRIRMRPPRLPRPRPRPKATPRP | 0.0633
RRIRMRPPRLPRPRPRPKCLPRP | 0.148
RRIRMRPPRLPRPRPRPKDLPRP | 0.153
RRIRMRPPRLPRPRPRPKEAPRP | -0.00711
RRIRMRPPRLPRPRPRPKESPRP | 0.939
RRIRMRPPRLPRPRPRPKFYPRP | 0.0127
RRIRMRPPRLPRPRPRPKGAPRP | 1.76
RRIRMRPPRLPRPRPRPKGHPRP | 0.0377
RRIRMRPPRLPRPRPRPKGLPRP | -0.0628
RRIRMRPPRLPRPRPRPKGMPRP | 1.37
RRIRMRPPRLPRPRPRPKHEPRP | 0.767
RRIRMRPPRLPRPRPRPKHSPRP | 0.247
RRIRMRPPRLPRPRPRPKKAPRP | 0.0459
RRIRMRPPRLPRPRPRPKKNPRP | 1.46
RRIRMRPPRLPRPRPRPKKSPRP | 1.18
RRIRMRPPRLPRPRPRPKMGPRP | -0.00235
RRIRMRPPRLPRPRPRPKNSPRP | 0.132
RRIRMRPPRLPRPRPRPKPCPRP | 0.366
RRIRMRPPRLPRPRPRPKQDPRP | 1.14
RRIRMRPPRLPRPRPRPKQNPRP | 1.16
RRIRMRPPRLPRPRPRPKTRPRP | 0.994
RRIRMRPPRLPRPRPRPKVGPRP | 1.27
RRIRMRPPRLPRPRPRPKWFPRP | 0.275
RRIRMRPPRLPRPRPRPKWWPRP | 0.755

Sequence | shrunken log2 fold change
RRIRMRPPRLPRPRPRPLAAPRP | 2.64
RRIRMRPPRLPRPRPRPLAFPRP | 0.52
RRIRMRPPRLPRPRPRPLAMPRP | 0.548
RRIRMRPPRLPRPRPRPLAQPRP | 0.634
RRIRMRPPRLPRPRPRPLCCPRP | 0.104
RRIRMRPPRLPRPRPRPLCFPRP | 0.562
RRIRMRPPRLPRPRPRPLCGPRP | 0.606
RRIRMRPPRLPRPRPRPLCKPRP | 0.206
RRIRMRPPRLPRPRPRPLDNPRP | 0.957
RRIRMRPPRLPRPRPRPLDSPRP | 0.204
RRIRMRPPRLPRPRPRPLEDPRP | 2.77
RRIRMRPPRLPRPRPRPLGKPRP | 0.0958
RRIRMRPPRLPRPRPRPLIKPRP | 0.0477
RRIRMRPPRLPRPRPRPLLHPRP | 0.228
RRIRMRPPRLPRPRPRPLLMPRP | 0.205
RRIRMRPPRLPRPRPRPLMEPRP | 1.68
RRIRMRPPRLPRPRPRPLNCPRP | -0.158
RRIRMRPPRLPRPRPRPLRDPRP | 2.66
RRIRMRPPRLPRPRPRPLREPRP | 3.88
RRIRMRPPRLPRPRPRPLRKPRP | 1.54
RRIRMRPPRLPRPRPRPLSCPRP | 0.163
RRIRMRPPRLPRPRPRPLSIPRP | -0.0206
RRIRMRPPRLPRPRPRPLSRPRP | 0.349
RRIRMRPPRLPRPRPRPLTFPRP | -0.291
RRIRMRPPRLPRPRPRPLVFPRP | 0.102
